Experiment: soluble fraction after stress (log2 fold change); higher = more stays soluble; pooled small domains, quantitative proteomics
Conditions: stress: 75 degC
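Note: 20 min heating vs room temperature control held 20 min.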

| Sequence | soluble fraction (log2) |
| --- | --- |
| HMRITRREQQVLHLLAMGMTTREIAGHINLTERTVRNRISNLRDKLGAQTASQLLAKAVAQGLIEP | -2.69 |
| HMRIVSGRESMLGRTVVVADWAGERGHVVVDGERWNAVASTPLAAGRRARIVGIDGLTLSVSPDDKP | 0.0293 |
| HMRKAERHLLIKQVIDEFTIRTQEELLAKLSDYGVNATQATISRDIRDLKIVKAPDENGISRFVFF | -1.73 |
| HMRKGDDRLRAQVDEYISKQGNNTFNYKQVAHAINATSPISQRAVALYLAELAFDGDLLETAPGRYKSPSR | -0.0636 |
| HMRKIKDVLRLKLHAGLSHERVAASLNISKGVVAKYTSLAAAAGLDWPTVERLSEAALERRLV | -0.181 |
| HMRKIKEVLRLKFETGFSHERIAAAVGVSKGAVTKYVQRAVAAGLGWPLAPERDDAALEALLFPH | 0.842 |
| HMRKLDQRLAGLLLGKGRLVKATHQQLADELGSVREMVSRLLKGFAEHDLVRMSREQIEIVDAAGLRKLAD | -2 |
| HMRKPDLTSVRTLIRSVSKLARHLKISPNGIYRWISVNRIPGAHVVKVANYYDVEIRDLVHLTGSD | -1.49 |
| HMRLADHVVEKLLALVQDRGLQPGQKLPAERQLAEELGVSRTSVREAIQKLTSQGVLSARRGDGTYLQS | 0.0739 |
| HMRLARPLTPTEERVLRLLASDMSNAKIGEVLGIRLPTVKSHVSHIMQKLGVTSRAKARTAAQQLGI | -1.21 |
| HMRLDPENFYIRAVTYYRNGDWQRALSQLDEAIKLGTAIEYPALQARIYLEQGMRDEFIAASEK | -1.86 |
| HMRLDVALRGVLLDGDPTQSRAFVLVSGTTSTYRLGETVQSAELVAINADTITLRTETGLHVIGFDGLI | -2.77 |
| HMRLEYLVDVEEISIKEYLMLLGLSRRLARKIKLYGKMYINHQEAFNYHLVKKGDLLTIEFDE | -2.85 |
| HMRLIDVFELSPKNRTVLQLYYYEGYSVTEISKILKISVNGVTSRLSRARSKLKLEMEAAENE | -0.577 |
| HMRLMLITPTEFDEAAEIADNLKDRRAVLMNVEKTDNETARRLIDFLSGVVYALGGKIMRISAQAYVLT | 0.00546 |
| HMRLPNGYGGVTKLSGRRRKPYMVRKTIGWHIDEKTDKKVQDYVVIGYAATKSEALQMLADYNNNPFDV | -2.93 |
| HMRLSVVDLQDSLRGLEYPAGKGDLINHAREHNASADVIAVLEQFSERTYRSAADVGEEFGRV | 0.152 |
| HMRLTIAQLSEKTGVPERTIRYYIDRGLVPSAHGERRGAWYDTVHLEPLLRIQQWREAGLSLEAIADLLR | -1.72 |
| HMRMLLEERLDEIVKIVNERGSISNQELVKMFGASESTIRRDITTLANDNRVIRVHGGAMSVVS | -0.333 |
| HMRMTLKNKVEDIVHILRKDKQTSLSAILGDNTDRIQTIVVFLAILELVKQHLIKTDQNANFGDINLFPED | -0.000181 |
| HMRNLFWTEAQNAQNELNAMRINALTQSIRRIEPNFRGIPSLRDPNRPIPNEEVRDYENYLNRILP | 0.0375 |
| HMRNMRKLWIARINAAARMNDISYSKLMHGLKLANVEINRKMLSEMAIDDPKSFTALVETAKKALNG | -1.49 |
| HMRNPLYAQVADYVMQQIAAGTYRPHQAIPTEWQLAKKLEVSQGTVRKGLDELVFKQILYRQQGVGTFVAD | -1.31 |
| HMRPAAELGLPHAPKHFIQYLTEDDRPQVLKDVDYEGGMGVSIGRLREDSIFDWKFVGLAHNTL | 0.0714 |

| Sequence | soluble fraction (log2) |
| --- | --- |
| HMRPADTAAMLKYLSSGAVKGIGGALAGRIIEAFGDESIKVIEEDPARLATVKGITLKKAKEISEEMQRVN | -0.0169 |
| HMRPEFVVALSGADLGKLHRLYELGEVLSREDDAEGVTHAVLRVPDKHEHAFHAEFPQARPM | 0.879 |
| HMRPIDEVFGFFSRPENLTVITPSNLHFNILTPRPLEMKQGAVIDYTIKIFKVPIHWRTLITTYDPPFKFV | 0.059 |
| HMRPILTLEEAKAKALAHAGLKADQVTFTEAKLDWDDGKQVYDIEFYTADFKEYDYEIDAKTGEVLEVDY | -0.466 |
| HMRPKAIFVDVDDTLVRSVGQTRIPMPAVIAHIRRLHDAGHQLYLWSSGGADYARASAEELGIGQYFQAFL | -0.268 |
| HMRPRWTEQEVERAKAIKMIYPNAYRLESSDVFVQVWSKEEILLAHVEVDMFPSLRPGQPVELDEIIG | -1.19 |
| HMRPTAWDQISDWLDRHGSIANADVVRIAGLDTLKASKLLTTWREQGLLEPLPGRGKRNMAYVRAI | -0.887 |
| HMRPTVNETQIREVFRSILGREVDPEGLRHYLGQAAKGWSIDQIRADVNNSQEAHQRRAELARQAEELK | -0.0425 |
| HMRQDEKTLLYWIAGHLKREGRQITERSARHLVEQVGTDMENLSREMEKLIAYTMGRTEITGQDIDDI | -1.77 |
| HMRQEIIEDSRKLLEESLKRYDLTYQEFIDTLKSKNMNVESTLINIIKNQSSLDLVLRNLGLIAP | -0.0293 |
| HMRQISDPTALASMVDKVIEDNPSAVADYRRGESKALGFLIGRVMQSSGGKANPKMIRGLLVKNLES | -0.284 |
| HMRQMIIIMQKQAAASSVAAVVEFIRSKGLREHISPGAERTIIGAVGDERVFLPQELESLPQVERAIRVL | -3.67 |
| HMRQPAAVEYSTFLDWVHASQVERVVFEGDTIRGVRVTGEGFVTYSPETDNTALIGELKKSRVQISATAP | -0.508 |
| HMRQQAFWALVPEERDVLDETGAPLFRIGPTAWALVIEDRGEVFVVRDEDGRVGYLHEVDGVTR | -1.57 |
| HMRQQLAEILQKAVDNLPEAQRLVWLLRDKSDMTFKEIAEDLQLTEANVRVLLHRARLKLLAVINQYEE | -1.66 |
| HMRQYKEMPYRLFLIHLGKGLVDEVELSDKAKLTGKLKNGKIFITDNPRTENFKEQLLLHDVKVKEG | -0.329 |
| HMRQYTPEQLETAVLVLEEVRQGRRLDRALRSHPMPDGRLIAKHVLVAAYRKLVAEGTWKEDPEFLSRIRM | -2 |
| HMRRADRLLQLIQILRRHRRPVTGDVMARELEVSLRTVYRDIATLTIEGVPIRGEAGVGYVLGEGY | -2.41 |
| HMRRDEDLAHGRELLEKELRKQGLEVSENLKQDKLLEGAKRLGFLEAEDLVVAVGSGKVSAGMAVGRIIG | -0.114 |
| HMRREKVLIKLAENLASKVLRTKKSIELEPMTPYERKVIHTTIENISGVKSWSEGENLQRHLIVALDE | -1.5 |
| HMRRGPLTPDDFVLDMRVVHPRYGVGRIVALSGSGESRKATVDFGGSIGRMKFVLSQSPLKP | -1.34 |
| HMRRHLLEMNDAIGRLGRLISEDPADRDVAEVIWAALRGMVMGQMIMNEPIDWQRERRTLVEMAIGR | 0.0485 |
| HMRRIADVVPEQLTREEAEELLETLAEQGEIHEEQALLARYILEQSLQGVAPEVEPLIRAKLLAGILMVY | -2.18 |
| HMRRKDIEFTNTMLEELYRHNSKWYDAVVRAYALEIPQKQIAEEMGIRLEAFQSMLFRAKKWIKTKYEADY | -2.83 |

| Sequence | soluble fraction (log2) |
| --- | --- |
| HMRRNLSGEDTIVNRMAQWQYTQEQKNELHKMMDAGMPQEDILSVFYPEIKAEEMHRFLLAFQTAHNSG | -0.344 |
| HMRRPRGVFNLVPRGFKRFGFITPDGGGEDMFAHLENVRAGHVVEDRNAVEYGIGRGPDGRDQAVDIVPVP | -0.0889 |
| HMRRPTYPTVTTEAGMVVEDRSSGFVGDIVRWSFEGVTLRDRQQQLRHFTWKPGGFLINGTPVTLKRPE | -0.733 |
| HMRRRVIGTLVMGDMSTDFKVLADGHTHRVLAAAISFHKAKPGDEVVILVPKSAPSKWAAVEHVMK | 0.033 |
| HMRSAKLPYSEFLKLVDTDKVNDVSIVGRTISGHLDDGSKFSTYTPPNDPNIIEKLSSHNVIINSAPE | 0.0959 |
| HMRSASFDIMSQKQSDATLGYERVYDTETNEVYKAYNGFTDDYDGERYKSISDNMYTKGISGYIEK | 0.39 |
| HMRSDSEIKEDVLDELMWQPNIDETQIGVIVEKGVVTLTGFVDAYAKKTAALDAVKNVKGVKAVANDIEV | 0.131 |
| HMRSFGRLRRRDSGRWEAAYVGPDARLYRAPATFEAKDDAIAWLSAERRMIELDTWIKPHDRASR | -1.78 |
| HMRSGFAFSEEEIKHLDNIVSPLLIKGQSIHHISIFHKDEVMMSERTLYSYVNNGLFSARNIDMPRTVRMR | 0.476 |
| HMRSISVEMDGKEYLIPTVSENGKVLSDDDAVKQFKKTGKHLDVFDSPEDATAYARQLHEDQESFYA | 0.231 |
| HMRSKTDLVYEEIKKLILRGELSSDTPISENHLARRFEISRTPIREALKRLHIEGFVRIIPNHGVFVR | -2.15 |
| HMRSLAVGNVVSEEGKPSYLLLDSKRTMLFSENSIPSLYLEDGRRVIVNYTLLDEDYQGYDFRIHVNDIDT | -0.00205 |
| HMRSNADALIGRTARVSQTIVENGFGRVALDGDDWKAQAADGSRIEEGQNVIVKDRDSIILTVEKE | 0.243 |
| HMRSNIYTEEKLWTVLQDFFQENRYLTISLMRMKFGLSRHMAQKWIDHFIAKGLLVKDGTPRSPIYFLND | -2.46 |
| HMRSNQKVSQIAISQVLPGMVTAKNVYSRNDQLILNRETTLDSTKIAKIMFYAIESIYVYEPE | -2.21 |
| HMRSPVDALSNRELQVLQMVGRGLSSRQVAEALHLSVKTVEAHRQRIKGKLGLRTGAQLVQFAANWVTG | -1.75 |
| HMRSREGVRWIIRERIMEELQERHHMDDGELLEMIDRSIGEMGQEIFLPLKERIWLRGSLFDSFR | -3.07 |
| HMRSWRDQRVDDLLAAVSELGMTMSRAAAGDLLDQRVEYVANQMRVTPATARKYLTEETLAGMAREIVFG | -1.02 |
| HMRTAFPQLTERELEILDLIAAGRNNAQIASALYLAPKTVRNNVSNILAKLQATDRAEAIIRARDAGLGG | -0.201 |
| HMRTAKEVFYKELKGYMQNGDELSVKKIYSLFPEINPKTVSWRLHELVQHGKIHRTGHGYYALTQ | -1.37 |
| HMRTDTIINSGGLKINPEEVENEILKSLGDNNFFIDKIKNDKFGEEIILIALKKIKINLLIESLNLI | 0.0576 |
| HMRTFFEIEQLKAYVGEEIQVKFEADSHKQTVLGKLISISEDFIEIENSKKGNLKISLDNYLTSKLIY | -2.23 |
